{"source": "paper PMC10812545", "about": "“The Binding of HSPA8 and Mitochondrial ALDH2 Mediates Oxygen-Glucose Deprivation-Induced Fibroblast Senescence” (Antioxidants, 2023)", "proteins": {"B1": {"name": "Aldehyde dehydrogenase 2 (ALDH2) (enzyme, mouse (endogenous in NIH3T3), UniProt P47738 20-519, looked up)", "chain": "SAAATSAVPAPNHQPEVFCNQIFINNEWHDAVSRKTFPTVNPSTGEVICQVAEGNKEDVDKAVKAARAAFQLGSPWRRMDASDRGRLLYRLADLIERDRTYLAALETLDNGKPYVISYLVDLDMVLKCLRYYAGWADKYHGKTIPIDGDFFSYTRHEPVGVCGQIIPWNFPLLMQAWKLGPALATGNVVVMKVAEQTPLTALYVANLIKEAGFPPGVVNIVPGFGPTAGAAIASHEGVDKVAFTGSTEVGHLIQVAAGSSNLKRVTLELGGKSPNIIMSDADMDWAVEQAHFALFFNQGQCCCAGSRTFVQENVYDEFVERSVARAKSRVVGNPFDSRTEQGPQVDETQFKKILGYIKSGQQEGAKLLCGGGAAADRGYFIQPTVFGDVKDGMTIAKEEIFGPVMQILKFKTIEEVVGRANDSKYGLAAAVFTKDLDKANYLSQALQAGTVWINCYDVFGAQSPFGGYKMSGSGRELGEYGLQAYTEVKTVTVKVPQKNS", "notes": "Aldehyde dehydrogenase 2, mitochondrial, endogenous in the mouse fibroblast line NIH3T3; Seen as dimer and tetramer after DSS cross-linking; also called mitochondrial ALDH2; mitochondrial aldehyde dehydrogenase; source: endogenous, NIH3T3 lysate"}}, "biological_target": "the molecule itself", "assay": "cross-linking; DSS 500 μM, 30 min at room temperature, quenched with 10 mM Tris; NIH3T3 cells (CON, OGD, siHSPA8); Western blot for ALDH2", "note": "“And” between values parts separate entries of the source, which are not always exact repeats. Equal entries are not always repeated."}
{"protein": "B1", "values": [{"measurement": "stoichiometry N", "value": "2 and 4"}]}
